The data set deals with the molecule itself. As to the kind of experiment: SEC + native gel or EMSA; control constructs in analytical Superose 6 gel filtration and clear-native and blue-native PAGE (Supplementary Fig. 2); self-association. Background: Mobility shift assays separate free from complexed probe on a gel.

As a reminder, the stoichiometry N is the number of molecules, sites or subunits per partner or assembly.

B1: human cystathionine beta-synthase catalytic domain alone (CBS^CD, residues 1–413) (domain or fragment, UniProt P35520 1-413, looked up)
chain: MPSETPQAEVGPTGCPHRSGPHSAKGSLEKGSPEDKEAKEPLWIRPDAPSRCTWQLGRPASESPHHHTAPAKSPKILPDILKKIGDTPMVRINKIGKKFGLKCELLAKCEFFNAGGSVKDRISLRMIEDAERDGTLKPGDTIIEPTSGNTGIGLALAAAVRGYRCIIVMPEKMSSEKVDVLRALGAEIVRTPTNARFDSPESHVGVAWRLKNEIPNSHILDQYRNASNPLAHYDTTADEILQQCDGKLDMLVASVGTGGTITGIARKLKEKCPGCRIIGVDPEGSILAEPEELNQTEQTTYEVEGIGYDFIPTVLDRTVVDKWFKSNDEEAFTFARMLIAQEGLLCGGSAGSTVAVAVKAAQELQEGQRCVVILPDSVRNYMTKFLSDRWMLQKGFLKEEDLTEKKPWWWHLR
notes: source: E. coli Rosetta (DE3), purified
For B1, the “stoichiometry N” value stood at 2.

These data come from article PMC10995199, “Architecture and regulation of filamentous human cystathionine beta-synthase” (Nature Communications, 2024).
